Here are results for 16 sequences from the nanobody polyreactivity screen of Harvey et al. (2022).

The nature of the data set: yeast display, Sf9 membrane polyspecificity reagent, FACS + sequencing; frameworks hold sequencing errors. The essentials: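 A nanobody's polyreactivity label depends on the gate it was sorted from. Yeast display cells were stained with 10% biotinylated, detergent-solubilized Sf9 membrane reagent for 1 hour at 4 °C, enriched on streptavidin microbeads and sorted by FACS. The low and high (top ~1%) gates were set on anti-HA fluorescence for expression and streptavidin fluorescence for reagent binding.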
Take “QVQLVESGGGLVQAGGSLRLSCAASGSIFYGYAMGWYRQAPGTERELVAALSWSDGITYYADSVKGRFTISRDNGKNTGYLQMKNLKPEDTAVYSCAAEYGQYGYDYWGKGTQVTVSS”: the “polyreactivity (PSR sort gate)” value is listed as “high polyreactivity”.
For the sequence “QVQLVESGGGLVQAGGSLRLSCAASGSIFYGYARGWYRQAPGKERELVASITSSGGSTYYADSVKGRFTISRDNAKNTDYLQMNSLKPEDSAVYYCAVIGYHYSAISPPSQTRQGYDYWGQVTQVTVSS”, the “polyreactivity (PSR sort gate)” value is on record as “low polyreactivity”.
To “QVQLVESGGGLVQAGGSLRLSCAASGSIFYGYDMGWYRQAPGKERELVAAISRSGGSTYYADSVKGRFTISRDNAKNTVYLQMNSLKPEDTAVSYCNAYPVTFVYYVGDGYWGQGTQVTVSS” belongs “high polyreactivity”.
To “QVQLVESGGGLVQAGGSLRLSCAASGSIFYGYTMGWYRQEPGKERELVAAIRKSGGSTNYADSVKGRFTISRDNAKNTVYLQMNSLKPEDTAVFYCAAAYYRGRGYYWGQGTQVTESS” belongs “high polyreactivity”.
In the case of “QVQLVESGGGLVQAGGSLRLSCAASGSIFYHNAMGRYRQAPGKERELVAAITGSGGSTYYADAVKGRFTISRDKAKNTVYFQMNSLKPEDTAVYDCAADGYTKWWISWGYDYWGQGTQVTVSS” it was “low polyreactivity”.
As to “QVQLVESGGGLVQAGGSLRLSCAASGSIFYHNAMGWYRQAPGKERELVAAISSSGGNTYYADSVKGRFTISRDNAKNTVYLQLNSLKPEDTAVYYCNKGFSYRSGRGYWGQGTQVTVSS”, the “polyreactivity (PSR sort gate)” value is “high polyreactivity”.
In the case of “QVQLVESGGGLVQAGGSLRLSCAASGSIFYHNAMGWYRQAPGKERELVAAITWSGSTTYYADSVKGRFTISRDNAKNTVYLQMKSLKPEDTAVYYCNAGNRHGHYDYWGQGTQVTVSS” it was “low polyreactivity”; in that of “QVQLVESGGGLVQAGGSLRLSCAASGSIFYHNAMGWYSPAPGKERELVAAISASGSTYYADSVKGRFTISRDNAKNTVSLQMNSLKTEDTAVYYCTFYWYNYWGQGTQVTVSS”, “high polyreactivity”.
On to “QVQLVESGGGLVQAGGSLRLSCAASGSIFYHYAMGWYRQAPGKERELVAAISDRGTSTYYADSVKGRFTISRDNAKNTVYLQMNSLKPEDTAVYYCAAEGSLNSFYYSYYYWGQGTQVTVSS”, for which the “polyreactivity (PSR sort gate)” value was “high polyreactivity”.
In the case of “QVQLVESGGGLVQAGGSLRLSCAASGSIFYINAMGWYRQAPGKERELVAAITSDGSTYYADSVKGRFTISRDNAKNTVYLQMNSLKPEDTAVYYCAADLTSDQYLYYWYWFYSWGQGTQVTVSS” it was “low polyreactivity”.
To “QVQLVESGGGLVQAGGSLRLSCAASGSIFYINDMGWYRQAPGKERELVASINSSGDSTYYADSVKGRFTISRDNAKNTVYLQMNSLKPEDTAVYYCAADDGYPIQEYDYWGQGTQVTVSS” belongs “low polyreactivity”; to “QVQLVESGGGLVQAGGSLRLSCAASGSIFYIYAMGWYRQAPGKERELVAGINGGGASTYYADSVKGRFTISRDNAKNTVYLQMNSLKPEDTAVYYCAADIRYLGEYWGQGTQVTVSS”, “low polyreactivity”.
In the case of “QVQLVESGGGLVQAGGSLRLSCAASGSIFYKNAMGWYRQAPGKERELVAAISSSGGSTRYADSVKGRFTISRDNSKNTVSLQMNSLKPEDTAVYYCAASGSRTSRGYWGQGTQVTVSS” it was “high polyreactivity”; in that of “QVQLVESGGGLVQAGGSLRLSCAASGSIFYKYAMGWYRQAPGKERELVATIRASGGRTYYADSVKGRFTISRDNAKNTVYLQMNSLKPEDTAVYYCAKYTTRGVYRSWPKDMDYWGQGTQVTVSS”, “low polyreactivity”.
“QVQLVESGGGLVQAGGSLRLSCAASGSIFYLYAMGWYRQAPGKERDVVAAITWRGGITNYADSVKGRFTISRYNAKNTVYLQMNSLKPEVTAVYYCAADPYRFLATELYYWGQGTQVTVSS”: the “polyreactivity (PSR sort gate)” value is given as “low polyreactivity”.
To “QVQLVESGGGLVQAGGSLRLSCAASGSIFYLYAMGWYRQAPGKERELVATMSSSGGSTYYADSVKGRFTISRDNAKNTVYLQMISLKPEDTAVYYCNADYIYYGTTYEYWGQGTQVTVSS” belongs “low polyreactivity”.
